{"source": "paper PMC3505834", "about": "(Nature immunology, 2012)", "target": "T1, recombinant soluble CD46 (CCP1-4) (human, UniProt P15529 35-285)", "T1 sequence (looked up)": "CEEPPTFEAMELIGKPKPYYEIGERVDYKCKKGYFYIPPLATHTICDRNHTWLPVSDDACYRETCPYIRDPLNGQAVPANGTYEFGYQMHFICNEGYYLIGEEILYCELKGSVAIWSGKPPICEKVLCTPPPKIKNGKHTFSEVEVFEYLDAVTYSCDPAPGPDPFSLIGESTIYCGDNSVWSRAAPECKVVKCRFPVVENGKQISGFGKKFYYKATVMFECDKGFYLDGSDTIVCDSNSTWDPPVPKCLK", "assay": "SPR", "data": [{"binder": "J-1_(DSL-EGF3), recombinant Jagged1 construct of the DSL and first three EGF-like domains (domain or fragment, c-terminally biotinylated) not shown", "values": [{"measurement": "Kd", "result": "~8", "unit": "µM"}]}]}
